Source: patent US20110053865A1 (Ablynx, published 2011)
Numbering of substitutions follows the chain as printed. Where “and” joins values, the source holds several entries; their conditions need not be identical. Identical values can stand only once. Like-named read-outs stand apart in the source and are kept apart here. One block for each binder: values may come before it.

Legend:
[1] = target: T1, recombinant human IL-23 (p19/p40) (human, UniProt Q9NPF7 20-189; P29460 23-328); experiment: cell-based or functional assay
T1 sequence (looked up) 1: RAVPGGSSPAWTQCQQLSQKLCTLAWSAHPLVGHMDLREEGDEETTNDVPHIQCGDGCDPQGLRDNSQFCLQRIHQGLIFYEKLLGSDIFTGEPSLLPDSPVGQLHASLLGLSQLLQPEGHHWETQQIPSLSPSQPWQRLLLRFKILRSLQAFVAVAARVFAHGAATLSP
T1 sequence (looked up) 2: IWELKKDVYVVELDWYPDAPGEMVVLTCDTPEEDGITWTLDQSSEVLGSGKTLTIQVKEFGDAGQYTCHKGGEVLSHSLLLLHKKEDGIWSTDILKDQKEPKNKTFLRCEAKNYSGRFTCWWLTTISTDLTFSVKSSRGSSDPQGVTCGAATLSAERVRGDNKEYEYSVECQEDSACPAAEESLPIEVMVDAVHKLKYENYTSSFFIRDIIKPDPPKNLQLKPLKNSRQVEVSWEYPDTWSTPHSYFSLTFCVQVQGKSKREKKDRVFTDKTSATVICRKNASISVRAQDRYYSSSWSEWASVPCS

cynomolgus IL-23 [2] = target: cynomolgus IL-23 (cynomolgus); experiment: cell-based or functional assay
cynomolgus IL-23 [3] = target: T2, cynomolgus IL-23 (cynomolgus); experiment: SPR Biacore, cyno IL-23 on chip
T2 construct: also called cyno IL-23; cIL-23

[4] = target: T1, recombinant human IL-23 (p19/p40); experiment: cell-based or functional assay; remark: listed apart in the source
cynomolgus IL-23 [5] = target: T2, cynomolgus IL-23; experiment: cell-based or functional assay; remark: listed apart in the source
[6] = target: T1, recombinant human IL-23 (p19/p40); experiment: comp alpha-screen hIL-23
cynomolgus IL-23 [7] = target: T2, cynomolgus IL-23; experiment: alpha-screen, cyno IL-23/IL-23R-Fc
[8] = target: T1, recombinant human IL-23 (p19/p40); experiment: SPR Biacore, hIL-23 on chip, several concentrations
[9] = target: T1, recombinant human IL-23 (p19/p40); experiment: SPR Biacore, hIL-23 on chip
[10] = target: T1, recombinant human IL-23 (p19/p40); experiment: cell-based or functional assay; remark: listed apart in the source
[11] = target: T1, recombinant human IL-23 (p19/p40); experiment: alpha-screen, hIL-23/IL-23R-Fc
[12] = target: T1, recombinant human IL-23 (p19/p40); experiment: 'potency assay', not specified (probably the inhibition ELISA of Example 34)
[13] = target: T1, recombinant human IL-23 (p19/p40); experiment: inhibition ELISA, hIL-23/hIL-23R-Fc
[14] = target: T1, recombinant human IL-23 (p19/p40); experiment: cell-based or functional assay; remark: listed apart in the source
[15] = target: T1, recombinant human IL-23 (p19/p40); experiment: cell-based or functional assay; remark: listed apart in the source
cynomolgus IL-23 [16] = target: T2, cynomolgus IL-23; experiment: cell-based or functional assay; remark: listed apart in the source
[17] = target: T1, recombinant human IL-23 (p19/p40); experiment: inhibition ELISA, hIL-23/hIL-23R-Fc; remark: listed apart in the source
[18] = target: T3, native human IL-23 (supernatant of SAC-stimulated THP-1 cells) (human, UniProt Q9NPF7 20-189; P29460 23-328); experiment: cell-based or functional assay
T3 sequence (looked up) 1: T1 sequence (looked up) 1
T3 sequence (looked up) 2: T1 sequence (looked up) 2

[19] = target: T1, recombinant human IL-23 (p19/p40); experiment: cell-based or functional assay; remark: listed apart in the source
[20] = target: T1, recombinant human IL-23 (p19/p40); experiment: SPR Biacore, hIL-23; kd2 200-1000 s
[21] = target: T1, recombinant human IL-23 (p19/p40); experiment: alpha-screen, hIL-23/hIL-23R
cynomolgus IL-23 [22] = target: T2, cynomolgus IL-23; experiment: alpha-screen, cIL-23/IL-23R
[23] = target: T1, recombinant human IL-23 (p19/p40); experiment: SPR Biacore, hIL-23; kd1 125-155 s
[24] = target: T1, recombinant human IL-23 (p19/p40); experiment: cell-based or functional assay; remark: listed apart in the source
cynomolgus IL-23 [25] = target: T2, cynomolgus IL-23; experiment: cell-based or functional assay; remark: listed apart in the source
cynomolgus IL-23 [26] = target: T2, cynomolgus IL-23; experiment: alpha-screen, cIL-23/hIL-23R
[27] = target: T1, recombinant human IL-23 (p19/p40); experiment: SPR Biacore 3000, hIL-23 on chip, 100 nM only (indicative)
[28] = target: T1, recombinant human IL-23 (p19/p40); experiment: SPR Biacore 3000, hIL-23 on chip
[29] = target: T1, recombinant human IL-23 (p19/p40); experiment: alpha-screen, hIL-23/IL-23R
[30] = target: T1, recombinant human IL-23 (p19/p40); experiment: cell-based or functional assay; remark: listed apart in the source
cynomolgus IL-23 [31] = target: T2, cynomolgus IL-23; experiment: cell-based or functional assay; remark: listed apart in the source

- IC50 [13]: 0.038 nM
- IC50, BA/F3 proliferation assay, 76 pM hIL-23 [14]: 125 pM
- IC50, splenocyte assay, 19 pM hIL-23 [15]: 4.6 pM
- IC50, splenocyte assay, 3.8 pM cIL-23 (cynomolgus IL-23 [16]): 6.7 pM
B3: P23IL119A3V16-35GS-81G2V11-HSA (bispecific antibody)
chain: EVQLLESGGGLVQPGGSLRLSCAASGRIFSLPASGNIFNLLTIAWYRQAPGKGRELVATINSGSRTYYADSVKGRFTISRDNSKKTLYLQMNSLRPEDTAVYYCQTSGSGSPNFWGQGTLVTVSSGGGGSGGGGSGGGGSGGGGSGGGGSGGGGSGGGGSEVQLLESGGGLVQPGGSLRLSCAASGLPFSTKSMGWFRQAPGKGREFVSRISPGGTSRYYGDFVKGRFTISRDNSKNTLYLQMNSLRAEDTAVYYCASGERSTYIGSNYYRTNEYDYWGQGTLVTVSS
notes: also called P23IL0065; 23IL0065; not shown: full length human serum albumin fused directly to the C-terminus

- IC50 [13]: 0.025 nM
- IC50, BA/F3 proliferation assay, 76 pM hIL-23 [14]: 71 pM
- IC50, splenocyte assay, 19 pM hIL-23 [15]: 2.7 pM
- IC50, splenocyte assay, 3.8 pM cIL-23 (cynomolgus IL-23 [16]): 13.1 pM
B5: P23IL119A3V16-35GS-81G2V11-GGGC-PEG40 linear (bispecific antibody)
chain: EVQLLESGGGLVQPGGSLRLSCAASGRIFSLPASGNIFNLLTIAWYRQAPGKGRELVATINSGSRTYYADSVKGRFTISRDNSKKTLYLQMNSLRPEDTAVYYCQTSGSGSPNFWGQGTLVTVSSGGGGSGGGGSGGGGSGGGGSGGGGSGGGGSGGGGSEVQLLESGGGLVQPGGSLRLSCAASGLPFSTKSMGWFRQAPGKGREFVSRISPGGTSRYYGDFVKGRFTISRDNSKNTLYLQMNSLRAEDTAVYYCASGERSTYIGSNYYRTNEYDYWGQGTLVTVSSGGGC
modifications: linear mPEG40 (maleimide) on the C-terminal Cys of GGGC
notes: also called P23IL0063; 23IL0063

- IC50, splenocyte assay, 19 pM hIL-23 [4]: 12 pM
- IC50, splenocyte assay, 3.8 pM cIL-23 (cynomolgus IL-23 [5]): 13 pM
- IC50, splenocyte assay, 19 pM native hIL-23 (Expt 1) [18]: 76 pM and 153 pM
- IC50, splenocyte assay, 19 pM hIL-23 [19]: 14 pM
B6: P23IL119A3-35GS-81G2 (bispecific antibody)
chain: EVQLVESGGGLVQAGGSLRLSCAASGRIFSLPASGNIFNLLTIAWHRQAPGMQRELVATINSGSRTNYADSVKGRFTISRDNAQKTVYLQMNNLKPEDTAVYYCQTSGSGSPNFWGQGTQVTVSSGGGGSGGGGSGGGGSGGGGSGGGGSGGGGSGGGGSEVQLVESGGGLVQPGGSLRLSCIASGLPFSTKSMGWFRQAPGKEREFVARISPGGTSRYYGDFVKGRFAISRDNAKNTTWLQMNSLKAEDTAVYYCASGERSTYIGSNYYRTNEYDYWGTGTQVTVSS

- koff [20]: 0.002 s⁻¹
- IC50 [21]: 1.47 nM
- koff [23]: 0.0052 s⁻¹
- IC50 (cynomolgus IL-23 [26]): 0.73 nM
- IC50, splenocyte assay hIL-23 [30]: 37.3 nM
- IC50, splenocyte assay cIL-23 (cynomolgus IL-23 [31]): 66.6 nM
B8: P23IL119A3-BASIC (VHH)
VHH: EVQLVESGGGLVQPGGSLRLSCAASGRIFSLPASGNIFNLLTIAWYRQAPGMQRELVATINSGSRTNYADSVKGRFTISRDNAQKTLYLQMNNLRPEDTAVYYCQTSGSGSPNFWGQGTLVTVSS

The remaining lines, values behind:

B1: P23IL37D5 (VHH)
VHH: EVQLVESGGGLVQPGGSLRLSCAASGFTLDYLAIGWFRQAPGKEREGVSCVSSSGQYTYYADSVKGRFTISRDNAESTVYLQMNSLKPEDTAVYYCATDPECYRVRGYYNGEYDYWGQGTQVTVSS
notes: p19+ Nanobody; c-myc, His6-tagged; also called PIL2337D5
- IC50, mouse splenocyte assay (mIL-22) [1]: 0.017 nM
- IC50, mouse splenocyte assay (mIL-22) (cynomolgus IL-23 [2]): 0.288 nM
- koff (cynomolgus IL-23 [3]): 0.00051 s⁻¹
- IC50, splenocyte assay, 19 pM hIL-23 [4]: 24 pM
- IC50, splenocyte assay, 3.8 pM cIL-23 (cynomolgus IL-23 [5]): 212 pM
- IC50 [6]: 0.176 nM
- IC50 (cynomolgus IL-23 [7]): 0.32 nM
- Kd [8]: 0.57 nM
- koff [8]: 0.00018 s⁻¹
- koff [9]: 0.00019 s⁻¹
- IC50, BAF3 proliferation assay, 76 pM hIL-23 [10]: 13 pM
- IC50 [11]: 0.11 nM
- IC50 [12]: 0.0384 nM

B2: P23IL36A4 (VHH)
VHH: EVQLVESGGGLVQAGGSLRLSCVASERTFSSSAMGWFRQAPGKEREFVAAIGWSGGGFIHYGDSVKGRFTISADNGKNTVYLQMNSLKPEDTAVYYCAADSRLRGIALLKGSYDYRGQGTQVTVSS
notes: p19+ Nanobody; c-myc, His6-tagged; also called P23IL 36A4 (=36G2); 36G2
- IC50, mouse splenocyte assay (mIL-22) [1]: 3.12 nM
- IC50, mouse splenocyte assay (mIL-22) (cynomolgus IL-23 [2]): 11 nM
- koff (cynomolgus IL-23 [3]): 0.0012 s⁻¹
- IC50 (cynomolgus IL-23 [7]): 0.47 nM
- koff [9]: 0.0009 s⁻¹
- IC50 [11]: 1 nM

B4: 23IL0038 (PEG40 form not stated) (bispecific antibody)
chain: EVQLVESGGGLVQAGGSLRLSCAASGRIFSLPASGNIFNLLTIAWHRQAPGMQRELVATINSGSRTNYADSVKGRFTISRDNAQKTVYLQMNNLKPEDTAVYYCQTSGSGSPNFWGQGTQVTVSSGGGGSGGGGSGGGGSGGGGSGGGGSGGGGSGGGGSEVQLVESGGGLVQPGGSLRLSCIASGLPFSTKSMGWFRQAPGKEREFVARISPGGTSRYYGDFVKGRFAISRDNAKNTTWLQMNSLKAEDTAVYYCASGERSTYIGSNYYRTNEYDYWGTGTQVTVSSGGGC
modifications: PEG40 on the C-terminal Cys of GGGC; branched or linear not stated for this assay
notes: also called P23IL0038; 119A3-81G2-PEG40
- IC50 [17]: 0.032 nM

B7: P23IL119A3 (VHH)
VHH: B8 VHH with P14A, Y46H, L87V, R95K, L120Q
notes: p19+ Nanobody
- IC50, mouse splenocyte assay (mIL-22) [1]: 25.5 nM
- IC50, mouse splenocyte assay (mIL-22) (cynomolgus IL-23 [2]): 37.4 nM
- IC50 [17]: 1.76 nM
- koff [20]: 0.0014 s⁻¹
- IC50 [21]: 1.21 nM
- IC50 (cynomolgus IL-23 [22]): 0.42 nM
- koff [23]: 0.0041 s⁻¹
- IC50, splenocyte assay hIL-23 [24]: 16.8 nM
- IC50, splenocyte assay cIL-23 (cynomolgus IL-23 [25]): 60.5 nM
- IC50 (cynomolgus IL-23 [26]): 0.5 nM
- Kd [27]: 1.4 nM
- kon [27]: 3.7e+06 M⁻¹ s⁻¹
- koff [28]: 0.0048 s⁻¹
- IC50 [29]: 0.76 nM
- IC50, splenocyte assay hIL-23 [30]: 16.8 nM
- IC50, splenocyte assay cIL-23 (cynomolgus IL-23 [31]): 60.5 nM
